{"source": "patent US11590206B2", "about": "“Liquid pharmaceutical composition” (SANOFI, priority 2017, dated 2023)", "format_in_all_cases": "physicochemical", "key": {"[1]": {"test": "ThT assay: fibrillation tendency under thermal and mechanical stress", "description": "Investigations were carried out to determine fibrillation tendencies under stress conditions using a ThT assay. […] Amyloid-like structures show a beta-sheet rich structure. Fibrillation of peptide solutions is induced by thermic and mechanical stress. Samples are stressed under defined conditions using Fluoroskan Ascent FL.\nFor the tests in Fluoroskan Ascent FL 200 μL sample were placed into 96 well microtiterplate PS, flat bottom, Greiner Fluotrac No. 655076. Plates were sealed with Scotch Tape (Quiagen). […] The kinetic was monitored by measuring fluorescence intensity every 20 minutes.\nSolutions were transferred in 2 mL Eppendorf vials and 20 μL of a 10.1 mM ThT solution in H2O were added to 2 mL of peptide solution to receive a final concentration of 100 μM ThT. For each sample eight replicates were tested."}, "[2]": {"test": "Rheology with rotation and capillary rheometer", "conditions": "Table 2 composition, 5.0 mg/ml; shear rates>1/s", "description": "To this end, a composition as described above in Table 2 containing 5.0 mg/ml SEQ ID NO.: 2 was added to a rheometer and subjected to measurement. The experiments were performed with a MCR rotation rheometer (Anton Paar) and with capillary rheometer Kinexus (Malvern). […] High shear rates have no influence on the shear viscosity of the formulation (see also FIG. 7)."}, "[3]": {"test": "Small angle X-ray scattering (SAXS): oligomer size and shape", "conditions": "in the formulations", "description": "SAXS measurements were performed at a synchrotron light source (DESY Hamburg). The scattering data from all samples were collected loading 20 microliters of solutions into the capillary and flowing the whole volume across the X-ray beam. Per each sample 20 frames of 0.045 s exposure were collected and, after a statistical consistency check, averaged. The corresponding signals collected for the placebo was then subtracted. Each sample measurement was repeated at least twice to ensure reproducibility."}, "[4]": {"test": "FTIR spectroscopy: ratio of alpha and beta sheets", "conditions": "5.0 mg/ml and 75 mg/mL named; phosphate buffer, m-cresol, sodium chloride (Table 2)", "description": "The physical and chemical stability of the stored formulations is determined with the help of the following tests: • Dynamic light scattering (DLS) method was applied to access the subvisible particle size distribution • Fourier transform infrared spectroscopy (FTIR) to analyze the ratio of alpha and beta sheets • Chemical stability (purity and impurities), determined by HPLC • Proteins of high molecular weight, determined by HPSEC\nFTIR spectroscopy is a suitable method for the determination of a protein's secondary structure. The vibration giving the most pronounced signal in FTIR spectroscopy is the C═O stretching vibration of amide groups resulting in a signal in the so-called amide I-region (1700-1600 cm^−1). This vibration is sensitive to the hydrogen-bonding pattern, dipole-dipole interactions and the geometry of the polypeptide backbone. […]\nAs a consequence, the individual component bands that represent the different structural elements, such as α-helices, β-sheets, turns and irregular structures are often not resolved and difficult to identify in the broad amide I-band contours of the experimentally obtained spectra. […] The absolute values for protein conformation determined by the chemometric method can therefore be systematically biased, however, the repeatability of results for samples of the same protein is usually in the range of +/−2%. […]"}}}
{"substance": "H-dSer-Q-G-T-F-T-S-D-L-S-K-Q-K(γE-x53)-ESKAAQDFIEWLKAGGPSSGAPPPS-NH2 (HXQGTFTSDLSKQKESKAAQDFIEWLKAGGPSSGAPPPS; D-Ser1, K14 gammaE-palmitoyl lipidation, C-terminal amide; Exendin-4 analogue; MOD_RES (2)..(2) Xaa is a D-Ser; MOD_RES (14)..(14) Lys is functionalized at the amino side chain group as Lys((S)-4-carboxy-4-hexadecanoylamino-butyryl); MOD_RES (39)..(39) Ser is modified with an NH2 group) [SEQ ID NO.: 2, γE-x53 is (S)-4-Carboxy-4-hexadecanoylamino-butyryl-]", "values": [{"measurement": "Fibrillation (ThT fluorescence)", "setting": "[1]; 1 mg/ml in PBS, 100 h incubation at +37° C. and 500 rpm", "value": "negligible fibrillation"}, {"measurement": "Fibrillation (ThT fluorescence)", "setting": "[1]; 5 mg/mL in phosphate buffer, NaCl and m-cresol, pH≈6.6, 100 hours at 37° C. shaking (500 rpm)", "value": "no fibrillation was observed"}, {"measurement": "fluid property (shear stress, viscosity vs shear rate)", "setting": "[2]", "value": "Newtonian fluid"}, {"measurement": "Oligomeric state (best fit of SAXS curve)", "setting": "[3]", "value": "all hexameric"}, {"measurement": "measured value of alpha sheets (FTIR)", "setting": "[4]", "value": 48.9, "unit": "%"}, {"measurement": "measured value of beta sheets (FTIR)", "setting": "[4]", "value": 13.1, "unit": "%"}]}
